Results: publication PMC11189301, “Structure of the human outer kinetochore KMN network complex” (Nature Structural & Molecular Biology, 2024)
Substitutions are numbered along the chain they refer to. Numbers in names are those of the source.

Key:
[1] = molecular target: T1, MIS12C (WT) (Homo sapiens, UniProt Q6P1K2+Q96IY1+Q9H081+Q9H410); experiment: Isothermal titration calorimetry (ITC), peptide titrated into wild-type MIS12C; assay type: binding; conditions: 20 °C, 20 mM HEPES pH 7.5, 100 mM NaCl, 1 mM TCEP, syringe Dsn1^92-113 W96A/R97A/R98A 1.0 mM, cell MIS12C(WT) 0.089 mM, listed as Dsn1^92–113 peptide with three Ala residues
T1 construct: TEV-cleavable double Strep II (DS) tag (C); made in house; host or cells: High-5 insect cells (baculovirus)

[2] = molecular target: T2, MIS12 complex (Mis12, Pmf1, Dsn1, Nsl1), wild type, full length (Homo sapiens, UniProt Q9H081 1-205; Q6P1K2 1-205; Q9H410 1-356; Q96IY1 1-281); experiment: cryo-EM structure; NDC80C, MIS12C and KNL1C mixed 1:1:1 and run on Superose 6 in 20 mM HEPES pH 8.0, 80 mM NaCl, 1 mM MgCl2, 1 mM TCEP; about 1 mg/ml on UltrAuFoil grids; 3.0 Å (MIS12C heads 3.8 Å); conditions: both partners purified
T2 construct: Mis12, subunit of human MIS12C; Pmf1, subunit of human MIS12C; Dsn1, subunit of human MIS12C; Nsl1, subunit of human MIS12C; The DS tag on Pmf1 is TEV cleavable; a cleavage is not described; also called MIS12C (WT); wild-type MIS12C; source: High-5 insect cells (baculovirus), purified (Strep-Tactin, Resource S, Superdex 200); copies: + + +
T2 sequence (looked up) 1: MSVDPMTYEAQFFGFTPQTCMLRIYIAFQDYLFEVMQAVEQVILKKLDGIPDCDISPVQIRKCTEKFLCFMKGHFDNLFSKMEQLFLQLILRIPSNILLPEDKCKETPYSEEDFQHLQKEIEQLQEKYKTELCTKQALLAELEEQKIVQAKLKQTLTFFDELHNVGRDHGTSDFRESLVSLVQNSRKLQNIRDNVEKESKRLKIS
T2 sequence (looked up) 2: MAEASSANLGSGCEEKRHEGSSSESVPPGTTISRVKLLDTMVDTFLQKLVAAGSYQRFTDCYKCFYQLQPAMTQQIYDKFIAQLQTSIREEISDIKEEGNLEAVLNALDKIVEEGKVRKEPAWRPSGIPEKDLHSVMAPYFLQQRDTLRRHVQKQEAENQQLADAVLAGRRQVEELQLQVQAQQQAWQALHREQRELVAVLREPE
T2 sequence (looked up) 3: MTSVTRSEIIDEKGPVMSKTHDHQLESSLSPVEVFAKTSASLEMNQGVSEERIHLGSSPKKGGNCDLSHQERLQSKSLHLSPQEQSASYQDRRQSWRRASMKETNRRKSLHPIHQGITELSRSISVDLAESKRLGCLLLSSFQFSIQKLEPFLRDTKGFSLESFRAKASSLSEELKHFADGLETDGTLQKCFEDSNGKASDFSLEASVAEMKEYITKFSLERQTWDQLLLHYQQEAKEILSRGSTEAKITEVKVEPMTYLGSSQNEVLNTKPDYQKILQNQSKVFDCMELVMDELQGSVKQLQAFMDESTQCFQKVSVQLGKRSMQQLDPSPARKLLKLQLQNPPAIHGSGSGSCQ
T2 sequence (looked up) 4: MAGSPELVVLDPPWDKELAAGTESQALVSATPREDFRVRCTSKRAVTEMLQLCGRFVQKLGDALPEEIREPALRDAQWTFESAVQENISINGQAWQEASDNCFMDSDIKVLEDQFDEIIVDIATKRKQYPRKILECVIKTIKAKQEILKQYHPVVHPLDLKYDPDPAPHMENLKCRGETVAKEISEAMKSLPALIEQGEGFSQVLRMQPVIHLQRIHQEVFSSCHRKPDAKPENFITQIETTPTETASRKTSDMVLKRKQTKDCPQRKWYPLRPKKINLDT

[3] = molecular target: T3, MIS12 complex with Dsn1 residues 6–113 deleted (Homo sapiens, UniProt Q9H081 1-205; Q6P1K2 1-205; Q9H410 1-356; Q96IY1 1-281, 6–113 residues deleted); experiment: ITC; peptide in the syringe titrated into the MIS12C variant in the cell; 20 °C; 20 mM HEPES pH 7.5, 100 mM NaCl, 1 mM TCEP; single-site binding model; duplicate or triplicate; conditions: both partners purified
T3 construct: Mis12, subunit of human MIS12C; Pmf1, subunit of human MIS12C; Nsl1, subunit of human MIS12C; also called MIS12C^Dsn1ΔN; MIS12C^ΔN-Dsn1; source: High-5 insect cells (baculovirus), purified (Strep-Tactin, Resource S, Superdex 200); copies: + + +
T3 sequence (looked up) 1: T2 sequence (looked up) 1
T3 sequence (looked up) 2: T2 sequence (looked up) 2
T3 sequence (looked up) 3: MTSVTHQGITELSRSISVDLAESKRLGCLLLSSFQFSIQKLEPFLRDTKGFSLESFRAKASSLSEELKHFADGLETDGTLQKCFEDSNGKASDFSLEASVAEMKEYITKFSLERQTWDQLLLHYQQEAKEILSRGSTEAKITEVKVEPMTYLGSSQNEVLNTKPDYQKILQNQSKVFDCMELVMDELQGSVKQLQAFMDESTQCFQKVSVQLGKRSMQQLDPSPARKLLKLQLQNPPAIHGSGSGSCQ
T3 sequence (looked up) 4: T2 sequence (looked up) 4

[4] = molecular target: T2, MIS12 complex (Mis12, Pmf1, Dsn1, …); experiment: as above; conditions: both partners purified
[5] = molecular target: T4, MIS12 complex (Mis12, Pmf1, Dsn1, Nsl1), wild type, full length (Homo sapiens, UniProt Q9H081 1-205; Q6P1K2 1-205; Q9H410 1-356; Q96IY1 1-281); experiment: ITC
T4 chain 1: T2 sequence (looked up) 1
T4 chain 2: T2 sequence (looked up) 2
T4 chain 3: T2 sequence (looked up) 3
T4 chain 4: T2 sequence (looked up) 4

[6] = molecular target: MIS12 complex with Dsn1 residues 6–113 deleted (Homo sapiens, UniProt Q9H081 1-205; Q6P1K2 1-205; Q9H410 1-356; Q96IY1 1-281, 6–113 residues deleted); experiment: ITC
[7] = molecular target: T5, MIS12 complex with Nsl1 truncated at the C terminus (Nsl1 1–264; residues 265–281 deleted) (Homo sapiens, UniProt Q9H081 1-205; Q6P1K2 1-205; Q9H410 1-356; Q96IY1 1-264); experiment: SEC; MIS12C or MIS12C^Nsl1ΔC mixed with Knl1 2131–2337 or its mutants at 4 µM each; 20 mM HEPES pH 7.8, 150 mM NaCl, 0.5 mM TCEP; Superose 6; fractions on SDS-PAGE; conditions: both partners purified
T5 construct: Mis12, subunit of human MIS12C; Pmf1, subunit of human MIS12C; Dsn1, subunit of human MIS12C; Nsl1, subunit of human MIS12C, residues 1-264; also called MIS12C^Nsl1ΔC; Nsl^1–264; source: High-5 insect cells (baculovirus), purified (Strep-Tactin, Resource S, Superdex 200); copies: + + +
T5 sequence (looked up) 1: T2 sequence (looked up) 1
T5 sequence (looked up) 2: T2 sequence (looked up) 2
T5 sequence (looked up) 3: T2 sequence (looked up) 3
T5 sequence (looked up) 4: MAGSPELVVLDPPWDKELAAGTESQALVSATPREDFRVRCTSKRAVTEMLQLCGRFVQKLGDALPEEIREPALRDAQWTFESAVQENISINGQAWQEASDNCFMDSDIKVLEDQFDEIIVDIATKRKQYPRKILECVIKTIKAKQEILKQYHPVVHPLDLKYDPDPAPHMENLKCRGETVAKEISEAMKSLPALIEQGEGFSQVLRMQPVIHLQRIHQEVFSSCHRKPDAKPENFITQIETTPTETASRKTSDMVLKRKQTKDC

[8] = molecular target: T2, MIS12 complex (Mis12, Pmf1, Dsn1, …); experiment: as above; conditions: both partners purified

With “RRQSAAAASMKETNRRKSLHPI-AW [Dsn1^92–113 W96A R97A R98A, Dsn1^92–113 peptide with WRR linchpin substituted by three Ala residues]” the “Kd / interaction of mutant Dsn1^92–113 peptide, in words” value [1] was “completely abolished”.

B1: KNL1 complex (Knl1 residues 1870–2342 with ZWINT) (complex, human)
chain 1: QMESQFLRDTICEESLREKLQDGRITIREFFILLQVHILIQKPRQSNLPGNFTVNTPPTPEDLMLSQYVYRPKIQIYREDCEARRQKIEELKLSASNQDKLLVDINKNLWEKMRHCSDKELKAFGIYLNKIKSCFTKMTKVFTHQGKVALYGKLVQSAQNEREKLQIKIDEMDKILKKIDNCLTEMETETKNLEDEEKNNPVEEWDSEMRAAEKELEQLKTEEEELQRNLLELEVQKEQTLAQIDFMQKQRNRTEELLDQLSLSEWDVVEWSDDQAVFTFVYDTIQLTITFEESVVGFPFLDKRYRKIVDVNFQSLLDEDQAPPSSLLVHKLIFQYVEEKESWKKTCTTQHQLPKMLEEFSLVVHHCRLLGEEIEYLKRWGPNYNLMNIDINNNELRLLFSSSAAFAKFEITLFLSAYYPSVPLPSTIQNHVGNTSQDDIATILSKVPLENNYLKNVVKQIYQDLFQDCHFYH
chain 2: MEAAETEAEAAALEVLAEVAGILEPVGLQEEAELPAKILVEFVVDSQKKDKLLCSQLQVADFLQNILAQEDTAKGLDPLASEDTSRQKAIAAKEQWKELKATYREHVEAIKIGLTKALTQMEEAQRKRTQLREAFEQLQAKKQMAMEKRRAVQNQWQLQQEKHLQHLAEVSAEVRERKTGTQQELDRVFQKLGNLKQQAEQERDKLQRYQTFLQLLYTLQGKLLFPEAEAEAENLPDDKPQQPTRPQEQSTGDTMGRDPGVSFKAVGLQPAGDVNLP
notes: Knl1, human, 2,342-residue protein, residues 1870-2342; ZWINT, human, constitutive partner of Knl1; Amplified from cDNA; also called Knl1–ZWINT; source: High-5 insect cells (baculovirus), purified (His-tag column, Resource Q)
B1: binds [2].

B2: Dsn1^92–113 auto-inhibitory peptide, wild type (peptide)
peptide: Ac-RRQSWRRASMKETNRRKSLHPIAW-NH2
notes: Ala-Trp added for determination of concentration by absorption at 280 nm; source: synthetic peptide (Cambridge Research Biochemicals)
For B2, the “fold increase in binding against wild-type MIS12C” value [3] was 44 fold, the binding result [4] was “binds” and the Kd [5] was 214 µM. For the same molecule, the Kd [6] was 4.89 µM.

B3: Knl1 RWD domains, residues 2131–2337, wild type (domain or fragment, H. sapiens, UniProt Q8NG31 2131-2337, looked up)
chain: SLSEWDVVEWSDDQAVFTFVYDTIQLTITFEESVVGFPFLDKRYRKIVDVNFQSLLDEDQAPPSSLLVHKLIFQYVEEKESWKKTCTTQHQLPKMLEEFSLVVHHCRLLGEEIEYLKRWGPNYNLMNIDINNNELRLLFSSSAAFAKFEITLFLSAYYPSVPLPSTIQNHVGNTSQDDIATILSKVPLENNYLKNVVKQIYQDLFQD
notes: Knl1, human, residues 2131-2337 (tandem RWD domains); also called Knl1^2131–2337; wild-type KNL1; source: E. coli BL21 (DE3), purified (Ni-NTA, reverse IMAC, Superdex 75); not shown: His6, N-terminal, cleaved
B3: binds [7]; binds [8].

B4: Knl1 residues 2131–2337, mut2 (S2270R S2272W) (domain or fragment, H. sapiens, UniProt Q8NG31 2131-2337, looked up)
chain: B3 chain with S140R, S142W
notes: Knl1, human, residues 2131-2337, RWD-C surface mutant 2; also called Knl1^mut2; KNL1^mut2; source: E. coli BL21 (DE3), purified (Ni-NTA, reverse IMAC, Superdex 75); not shown: His6, N-terminal, cleaved
B4: binds [8].
